# What was measured:
# Format in all cases: in vivo
# [1] = tested on: Arabidopsis thaliana T1 plants; assay: Topramezone tolerance of transgenic Arabidopsis thaliana T1 plants (spray, bleached leaf area grade, damage score); conditions: 7 DAT, Table 4; for Classification and statistics of the grade of pesticide damage: Grade 0 / Classification and statistics of the grade of pesticide damage: Grade 1 / Classification and statistics of the grade of pesticide damage: Grade 2 / Classification and statistics of the grade of pesticide damage: Grade 3: number of plants; for Scores: pesticide damage score 0-100
# Outline: (§1)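 Damage graded 0–3 from the proportion of bleached leaf area 7 days after spraying. Plants were glufosinate-selected T1 lines, 18 days after sowing, plus vector and wild-type controls. Rates: mesotrione 52.5–420, isoxaflutole 35–280, topramezone 25–200 g ai/ha, with water (0×).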
# [2] = tested on: Arabidopsis thaliana T1 plants; assay: Isoxaflutole tolerance of transgenic Arabidopsis thaliana T1 plants (spray, bleached leaf area grade, damage score); parameters: Scores (pesticide damage): scale not given here; conditions: spray, Arabidopsis thaliana T1 plants; for Classification and statistics of the grade of pesticide damage: Grade 0 (number of plants) / Classification and statistics of the grade of pesticide damage: Grade 1 (number of plants) / Classification and statistics of the grade of pesticide damage: Grade 2 (number of plants) / Classification and statistics of the grade of pesticide damage: Grade 3 (number of plants): 16 plants
# Outline: as §1
# [3] = tested on: Arabidopsis thaliana T1 plants; assay: Mesotrione tolerance of transgenic Arabidopsis thaliana T1 plants (spray, bleached leaf area grade, damage score); parameters: Scores: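 damage score 0-100 computed as Σ(N×S)/(T×M)×100 over grades 0-3 with higher meaning more damage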; conditions: Arabidopsis thaliana T1 plants; for Grade 0 (classification and statistics of the grade of pesticide damage; number of plants) / Grade 1 (classification and statistics of the grade of pesticide damage; number of plants) / Grade 2 (classification and statistics of the grade of pesticide damage; number of plants) / Grade 3 (classification and statistics of the grade of pesticide damage; number of plants): 16 plants
# Outline: as §1
# [4] = isoxaflutole 35 g ai/ha (0.5x field concentration)
# [5] = isoxaflutole 70 g ai/ha (1x field concentration)
molecule,measurement,setting,value
"MsHPPDm-F372A-F383W-02: nucleotide sequence encoding Medicago sativa HPPD with F372A+F383W; vector DBN11737 (nucleic acid, MsHPPDm-F372A-F383W-02 Nucleotide Sequence, vector DBN11737) DNA: ATGGCTATTGAAACCGAAACACAAACTCAGACTGGATTTAAACTGGTAGGGTTCAAGAATTTCGTTAGGGCTAATCCCAAGTCTGATCGTTTTAAGGTCAAGAGGTTCCACCACGTGGAGTTCTGGTGCACTGATGCAACCAACACGGCGCGGCGTTTTTCACATGGTCTTGGAATGCCTATTGTTGCAAAATCCGACCTCTCCACGGGGAACCAAACACACGCCTCTTACCTGCTACGGAGTGGTGACTTGAACTTCCTCTTCAGCGCCGCCTACTCACCCTCCATATCGTTGTCTTCACCATCCTCGACCGCAGCAATTCCTACATTTTCTGCGAGCAACTGCTTCTCTTTCTCTGCCAGTCATGGCCTCGCCGTCAGAGCAGTGGCCGTTGAAGTAGAGGATGCTGAACTTGCTTTTACAACTTCAGTGAATAATGGAGCAATACCGAGCAGTCCGCCGGTCATACTTGAGAATCATGTGAAGCTAGCGGAGGTGAGGCTTTATGGGGACGTCGTTTTAAGATATGTCAGCTACAATGATCCAAACCCCAATCAAAATCCAAATTTGTTGTTCCTTCCTGGCTTCGAGCGTGTTAGCGATGAATCTTCAAACTCTTCACTGGATTTTGGAATCAGACGGTTGGATCATGCTGTTGGAAATGTTCCTGAACTCTCGAGCGCTGTGAAATATGTGAAGGACTTCACCGGTTTTCATGAATTTGCTGAGTTTACTGCAGAAGATGTGGGTACATCAGAGAGTGGCTTGAATTCCGTGGTGCTCGCCAACAACGAGGAGACTGTACTCTTACCAATGAATGAGCCAGTCTATGGCACCAAGCGTAAATCTCAAATTGAGACATATTTGGAGCACAATGAAGGAGCTGGACTTCAGCATCTCGCGCTGAAGAGTGAGGACATCTTCCGCACCCTACGGGAGATGAGGAAAAGAAGTGGTGTTGGTGGGTTTGAATTCATGCCATCACCTCCTGTCACCTACTACAGGAACCTGAAGAACAGAGTTGGTGATGTACTTTCGGACGAGCAGATAAAGGAATGTGAAGAGTTGGGGATTTTGGTTGATAGAGATGATCAAGGAACACTCCTGCAGATTGCCACAAAACCAATTGGCGACCGCCCCACTATCTGGATAGAGATCATCCAGAGGGTGGGGTGCATGCTCAAAGACGAGGAAGGGAAGGAGTACCAGAAGGGCGGCTGTGGTGGTTTTGGGAAAGGAAACTTTTCTGAGTTATTCAAATCAATTGAAGAGTATGAGAAGACGCTTGAAACGCGTCGCACTGCTTGA",Classification and statistics of the grade of pesticide damage: Grade 0,[1]; topramezone 25 g ai/ha (1×),6
same,Classification and statistics of the grade of pesticide damage: Grade 1,[1]; topramezone 25 g ai/ha (1×),9
same,Classification and statistics of the grade of pesticide damage: Grade 2,[1]; topramezone 25 g ai/ha (1×),1
same,Classification and statistics of the grade of pesticide damage: Grade 3,[1]; topramezone 25 g ai/ha (1×),0
same,Classification and statistics of the grade of pesticide damage: Grade 0,[1]; topramezone 100 g ai/ha (4×),0
same,Classification and statistics of the grade of pesticide damage: Grade 1,[1]; topramezone 100 g ai/ha (4×),8
same,Classification and statistics of the grade of pesticide damage: Grade 2,[1]; topramezone 100 g ai/ha (4×),6
same,Classification and statistics of the grade of pesticide damage: Grade 3,[1]; topramezone 100 g ai/ha (4×),2
same,Scores,[1]; topramezone 25 g ai/ha (1×),23
same,Scores,[1]; topramezone 100 g ai/ha (4×),54
same,Resistance evaluation,[1]; topramezone 25 g ai/ha (1×),moderately
same,Resistance evaluation,[1]; topramezone 100 g ai/ha (4×),poorly
same,Resistance evaluation,[2]; [4],Moderately
same,Scores (pesticide damage),[2]; [4],27
same,Classification and statistics of the grade of pesticide damage: Grade 0 (number of plants),[2]; [4],5
same,Classification and statistics of the grade of pesticide damage: Grade 1 (number of plants),[2]; [4],9
same,Classification and statistics of the grade of pesticide damage: Grade 2 (number of plants),[2]; [4],2
same,Classification and statistics of the grade of pesticide damage: Grade 3 (number of plants),[2]; [4],0
same,Resistance evaluation,[2]; [5],Moderately
same,Scores (pesticide damage),[2]; [5],33
same,Classification and statistics of the grade of pesticide damage: Grade 0 (number of plants),[2]; [5],2
same,Classification and statistics of the grade of pesticide damage: Grade 1 (number of plants),[2]; [5],12
same,Classification and statistics of the grade of pesticide damage: Grade 2 (number of plants),[2]; [5],2
same,Classification and statistics of the grade of pesticide damage: Grade 3 (number of plants),[2]; [5],0
same,Resistance evaluation,[3]; mesotrione 52.5 g ai/ha,Moderately
same,Scores,[3]; mesotrione 52.5 g ai/ha,33
same,Grade 0 (classification and statistics of the grade of pesticide damage; number of plants),[3]; mesotrione 52.5 g ai/ha,3
same,Grade 1 (classification and statistics of the grade of pesticide damage; number of plants),[3]; mesotrione 52.5 g ai/ha,10
same,Grade 2 (classification and statistics of the grade of pesticide damage; number of plants),[3]; mesotrione 52.5 g ai/ha,3
same,Grade 3 (classification and statistics of the grade of pesticide damage; number of plants),[3]; mesotrione 52.5 g ai/ha,0
same,Resistance evaluation,[3]; mesotrione 105 g ai/ha,Non-resistant
same,Scores,[3]; mesotrione 105 g ai/ha,79
same,Grade 0 (classification and statistics of the grade of pesticide damage; number of plants),[3]; mesotrione 105 g ai/ha,0
same,Grade 1 (classification and statistics of the grade of pesticide damage; number of plants),[3]; mesotrione 105 g ai/ha,0
same,Grade 2 (classification and statistics of the grade of pesticide damage; number of plants),[3]; mesotrione 105 g ai/ha,10
same,Grade 3 (classification and statistics of the grade of pesticide damage; number of plants),[3]; mesotrione 105 g ai/ha,6

# — US20250043302A1, “MUTATED HYDROXYPHENYLPYRUVATE DIOXYGENASE POLYPEPTIDE, AND CODING GENE AND USE THEREOF” (BEIJING DABEINONG BIOTECHNOLOGY CO., LTD., priority 2021, published 2025)
